{"source": "paper PMC4746669", "about": "“Attenuation of ligand-induced activation of angiotensin II type 1 receptor signaling by the type 2 receptor via protein kinase C” (Scientific Reports, 2016)", "key": {"[1]": {"molecular_target": "T1, FLAG-AT2R-CFP (angiotensin II type 2 receptor) (human, UniProt P50052 1-363)", "T1 construct": "Human angiotensin II type 2 receptor (AT2R); cDNA by RT-PCR from human umbilical vein endothelial cells; printed primers run from the codon after the initial methionine to the last codon; FLAG tag inserted after the initial methionine; subcloned EcoRI-NotI into pCXN2-CFPC; also called CFP-tagged AT2R; source: HeLa cells, transfected (FuGENE HD), in lysate or in living cells; not shown: FLAG, …", "T1 sequence (looked up)": "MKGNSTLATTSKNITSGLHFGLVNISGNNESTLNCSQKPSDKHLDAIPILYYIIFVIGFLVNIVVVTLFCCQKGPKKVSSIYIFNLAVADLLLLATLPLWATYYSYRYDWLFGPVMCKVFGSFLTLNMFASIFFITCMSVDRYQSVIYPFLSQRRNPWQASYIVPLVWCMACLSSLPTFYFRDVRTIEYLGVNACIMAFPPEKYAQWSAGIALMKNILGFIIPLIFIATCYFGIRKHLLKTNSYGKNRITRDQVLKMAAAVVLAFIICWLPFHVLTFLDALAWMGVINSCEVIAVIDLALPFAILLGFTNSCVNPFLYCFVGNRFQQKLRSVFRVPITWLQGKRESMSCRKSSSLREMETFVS", "assay": "co-IP; 293T cells, with or without AII (Suppl. Fig. S3); details not shown", "conditions": "partners not purified"}, "[2]": {"molecular_target": "T1, FLAG-AT2R-CFP (angiotensin II type 2 …)", "assay": "co-IP; HeLa cells co-transfected with HA-AT1R-YFP and Flag-AT2R-CFP, serum starved, with or without losartan or PD123319 pre-treatment and AII stimulation; NP-40 lysis buffer (10 mM Tris-HCl pH 7.4, 150 mM NaCl, 5 mM EDTA, 0.5% NP-40, 10% glycerol); anti-FLAG antibody with protein A-Sepharose; blot with anti-HA", "conditions": "partners not purified"}}, "data": [{"binder": "HA-AT1R-YFP (angiotensin II type 1 receptor) (receptor, human, UniProt P30556 1-359, looked up, Human angiotensin II type 1 receptor (AT1R); cDNA by RT-PCR from human umbilical vein endothelial cells; printed primers run from the codon after the initial methionine to the last codon; HA tag inserted after the initial methionine; subcloned EcoRI-NotI into pCXN2-YFPC; The reverse primer also encodes a stretch behind the NotI site that is lost on subcloning EcoRI-NotI into pCXN2-YFPC; also …) MILNSSTEDGIKRIQDDCPKAGRHNYIFVMIPTLYSIIFVVGIFGNSLVVIVIYFYMKLKTVASVFLLNLALADLCFLLTLPLWAVYTAMEYRWPFGNYLCKIASASVSFNLYASVFLLTCLSIDRYLAIVHPMKSRLRRTMLVAKVTCIIIWLLAGLASLPAIIHRNVFFIENTNITVCAFHYESQNSTLPIGLGLTKNILGFLFPFLIILTSYTLIWKALKKAYEIQKNKPRNDDIFKIIMAIVLFFFFSWIPHQIFTFLDVLIQLGIIRDCRIADIVDTAMPITICIAYFNNCLNPLFYGFLGKKFKRYFLQLLKYIPPKAKSHSNLSTKMSTLSYRPSDNVSSSTKKPAPCFEVE", "values": [{"measurement": "fold enhancement of the association by AII treatment (against no AII)", "setting": "[1]", "value": 2.4, "unit": "fold"}, {"measurement": "fold enhancement of the association by AII treatment (against no AII)", "setting": "[2]", "value": 1.6, "unit": "fold"}]}]}
